Data published in patent US20070092508A1, “Detoxification depot for Alzheimer's disease” (Recombiant Technologies, LLC, priority 2005, published 2007).
Non-standard residues stand in square brackets, D forms with d. No end group written: not given here.

Legend:
Aβ [1] = settings: AD model mice, after 1 day of treatment; cited from earlier work
Aβ [2] = target: Aβ (Homo sapiens, UniProt P05067); settings: shortest fragment of Aβ1-40; cited from earlier work
Aβ fibril formation = Aβ fibril formation (Homo sapiens, UniProt P05067); settings: microscopy; cited from earlier work
Aβ fibril formation, sequence (P05067 672-711 limits assumed): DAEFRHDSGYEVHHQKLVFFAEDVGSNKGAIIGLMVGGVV

[3] = target: T1, biotinylated Aβ^1-42 peptide (Homo sapiens, UniProt P05067); assay: Direct ELISA: plate-immobilised capture peptide probed with biotinylated Aβ1-42; format: binding; settings: 1 μg/well capture peptide, 1 μg/ml biotinylated Aβ, 2 hours; compared with scrambled or irrelevant control peptide (FIG. 1a)
T1 construct: purchased
T1 sequence (P05067 672-713): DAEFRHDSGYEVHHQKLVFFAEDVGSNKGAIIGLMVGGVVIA
Description: (§1) FIG. 1a graphically illustrates binding of biotinylated Aβ^1-42 and biotinylated Aβ^1-40 peptide (SEQ ID NO: 2) by RI peptide. 96-well plate was coated with the capture peptide (1 μg/well of retro-inverso [RI], scrambled [SCR] or an irrelevant control peptide), blocked with gelatin and probed with 1 μg/ml of biotinylated Aβ peptide for 2 hours and streptavidin peroxidase for 1 hour. Experiments were repeated and were calculated as Mean±SE (N=2) and expressed as pmols Aβ^1-42/ml of binding solution. Graded concentrations of biotinylated Aβ^1-42 peptide (SEQ ID NO: 3) was used as a calibration standard.
(§2) Testing the binding and stability of biotinylated Aβ peptides in binding solution.

[4] = target: T2, biotinylated Aβ^1-40 peptide (Homo sapiens, UniProt P05067); assay: Direct ELISA: plate-immobilised capture peptide probed with biotinylated Aβ1-40; format: binding; settings: 1 μg/well capture peptide, 1 μg/ml biotinylated Aβ, 2 hours; compared with scrambled or irrelevant control peptide (FIG. 1a)
T2 construct: purchased
T2 sequence (P05067 672-711): as the sequence (P05067 672-711 limits assumed) above
Description: as §1, §2

[5] = target: biotinylated Abeta 1-40 peptide; assay: binding experiments with the gel, ELISA of the solution
biotinylated Abeta 1-40 peptide, sequence (peptide, as listed by the source): as the sequence (P05067 672-711 limits assumed) above

Aβ, sequence (P05067 672-711 limits assumed): as above
Aβ (Homo sapiens, UniProt P05067), sequence (P05067 672-711 limits assumed): as above

GM1
levels of Aβ in brain (Aβ [1]): reduced in half
reduction of Aβ in brain (Aβ [1]): ~500 ng/g tissue

KLVFF
Aβ binding capacity (Aβ [2]): consistently high Aβ binding capacity
effect on fibril formation in vitro (Aβ fibril formation): able to interfere with fibril formation

gelsolin
levels of Aβ in brain (Aβ [1]): reduced in half
reduction of Aβ in brain (Aβ [1]): ~500 ng/g tissue

phe-phe-val-leu-lys-Cys ([dF][dF][dV][dL][dK][dC]; not fully specified (C-terminus); printed as phe-phe-val-leu-lys-cys) [RI peptide]
binding of biotinylated Aβ^1-42 to immobilised peptide [3]: significant and specific binding
binding of biotinylated Aβ^1-40 to immobilised peptide [4]: significant and specific binding

B1: detox gel (RI gel): retro-inverso peptide phe-phe-val-leu-lys-Cys linked by its cysteine thiol to a cross-linked 8-arm PEG hydrogel (peptide)
peptide: FFVLKC
modifications: not fully specified; composed of D-amino acids; Cys thiol linked to vinyl sulfone-PEG of the gel matrix; C-terminus amidated per the note to Table 1
percent of possible binding in a 1:1 complex [5]: 5%
